Measurements taken from IntAct's records for PubMed 17721437.

B1: Dynamin-1-like protein (Rattus norvegicus (Rat)), O35303 (parent)
chain: MEALIPVINKLQDVFNTVGADIIQLPQIVVVGTQSSGKSSVLESLVGRDLLPRGTGVVTRRPLILQLVHVSPEDKRKTTGEENDPATWKNSRHLSKGVEAEEWGKFLHTKNKLYTDFDEIRQEIENETERISGNNKGVSPEPIHLKVFSPNVVNLTLVDLPGMTKVPVGDQPKDIELQIRELILRFISNPNSIILAVTAANTDMATSEALKISREVDPDGRRTLAVITKLDLMDAGTDAMDVLMGRVIPVKLGIIGVVNRSQLDINNKKSVTDSIRDEYAFLQKKYPSLANRNGTKYLARTLNRLLMHHIRDCLPELKTRINVLAAQYQSLLNSYGEPVDDKSATLLQLITKFATEYCNTIEGTAKYIETSELCGGARICYIFHETFGRTLESVDPLGGLNTIDILTAIRNATGPRPALFVPEVSFELLVKRQIKRLEEPSLRCVELVHEEMQRIIQHCSNYSTQELLRFPKLHDAIVEVVTCLLRKRLPVTNEMVHNLVAIELAYINTKHPDFADACGLMNNNIEEQRRNRLARELPSAVSRDKSSKVPSALAPASQEPSPAASAEADGKLIQDNRRETKNVASAGGGIGDGGRIGDGGQEPTTGNWRGMLKTSKAEELLAEEKSKPIPIMPASPQKGHAVNLLDVPVPVARKLSAREQRDCEVIERLIKSYFLIVRKNIQDSVPKAVMHFLVNHVKDTLQSELVGQLYKSSLLDDLLTESEDMAQRRKEAADMLKALQGASQIIAEIRETHLW

Variants of: B1
Details: with kapca_rat Prkaca

Row | effect of a mutation on the interaction | Variant
1 | disrupting interaction | S656A
